These results are taken from the supplement of paper PMC10567573.

A short description of this series: protein stability index of a GFP-peptide fusion (GPS, HEK-293T) (PSI 1-6); higher = more stable.
[1] abbreviates: treatment: DMSO, c terminus: a fixed tail appended.
[2] abbreviates: treatment: MLN4924 1 uM, 8 h, c terminus: a fixed tail appended.

± gives the standard deviation.
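Further: 24-mer peptide tiles fused after GFP, lentivirally expressed, FACS-sorted into six equal bins by GFP/DsRed ratio, decoded by Illumina sequencing, PSI is the read-weighted mean bin number.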

As for VPWLNLKKQDENEGIKVEDLLFIV [CEP70], the protein stability index is 1.97 ± 0.42 under setting [1] and 2.26 ± 0.22 under setting [2].

Consider VQIKTWFQNRRMKHKRQMQDPQLH [VENTX], for which the protein stability index runs as follows: under setting [1], 2.55 ± 0.4; under setting [2], 2.52 ± 0.34.

As for VRERDRLGNEYPKLHYPELYVLKG [CDC25A], the protein stability index runs as follows: under setting [1], 2.62 ± 0.21; under setting [2], 2.75 ± 0.12.

Sequence VSNDSHTWVTVKNGSGDMIFEGNS [CPXM2] displayed a protein stability index under setting [1] of 3.79 ± 0.16 and a protein stability index under setting [2] of 4.32 ± 0.3.

As for VSTQRSQDHFHVFVGDLSPEITTE [TIA1], the protein stability index is, setting by setting: under setting [1], 3.98 ± 0.29; under setting [2], 3.92 ± 0.41.

Consider VVGLHAASKDPREVREARDHKEPK [EHMT1], for which the protein stability index is, setting by setting: under setting [1], 5.06 ± 0.13; under setting [2], 5.11 ± 0.052.

For VVGNWQYFFPVIFSKASSSLQLVF [MAGEA3], the protein stability index reads like this: under setting [1], 3.28 ± 0.46; under setting [2], 3.11 ± 0.55.

On to VVHQRVHSGEKPYKCSDCGKTFKQ [ZNF232], for which the protein stability index is, setting by setting: under setting [1], 3.29 ± 0.25; under setting [2], 3.43 ± 0.23.

Consider VVPVLVFPPDLVFRADQRSGPRQL [MOSPD3], for which the protein stability index runs as follows: under setting [1], 2.27 ± 0.38; under setting [2], 2.41 ± 0.25.

The sequence VWMLMLLLAVPNIILTNQSVREVT [P2RY14] registered a protein stability index under setting [1] of 3.27 ± 0.3 and a protein stability index under setting [2] of 2.96 ± 0.46.

Consider VYNAARDGKLQLLQKLLSGRSREE [FEM1A], for which the protein stability index under setting [1] was found to be 2.77 ± 0.15 and the protein stability index under setting [2] worked out at 2.79 ± 0.27.

For VYSLQDFDTLATVGTGTFGRVHLV [PRKX], the protein stability index by setting is: under setting [1], 2.42 ± 0.079; under setting [2], 2.42 ± 0.37.

The sequence WAQLEAPARLLLQALQAGPEGARR [FANCE] had a protein stability index under setting [1] of 2.78 ± 0.37 and a protein stability index under setting [2] of 3.08 ± 0.29.

On to WFFLQSELKKLKNLEGNELQRHAD [FUT8], for which the protein stability index runs as follows: under setting [1], 2.56 ± 0.34; under setting [2], 2.71 ± 0.41.

As for WFSCQGPFDMDSCLSRHSINPYSN [DFFB], the protein stability index amounted to 2.35 ± 0.24 under setting [1] and 2.2 ± 0.27 under setting [2].

Consider WGEGLHQLREALKILAERVLILET [EMID1], for which the protein stability index stood at 2.47 ± 0.24 under setting [1] and 2.78 ± 0.31 under setting [2].

For the sequence WGFRLVGGRDFSAPLTISRVHAGS [PDLIM4], the protein stability index turned out to be 2.02 ± 0.24 under setting [1] and 2.17 ± 0.32 under setting [2].

In the case of WHPKPYCQALPYGPGYWMCCHRSQ [FBXO34], the protein stability index is, setting by setting: under setting [1], 2.32 ± 0.37; under setting [2], 2.08 ± 0.14.

Take WKVRAEKEACQREKELPAAVHPFH [ZBED2]: the protein stability index stood at 3.9 ± 0.18 under setting [1] and 3.93 ± 0.15 under setting [2].

With WLFGATAVALGGVALSVVIAARN [FKBP8], the protein stability index was 2.51 ± 0.55 (treatment: DMSO, c terminus: native) and 2.59 ± 0.4 (treatment: MLN4924 1 uM, 8 h, c terminus: native).

As for WNDFLMCYSSRPLLCWSVWWALST [SLC19A2], the protein stability index came to 3.5 ± 0.3 under setting [1] and 3.32 ± 0.46 under setting [2].

WRRSGKYVYKPVMNQTCCPQYTIR [ATE1]: the protein stability index under setting [1] was determined as 2.03 ± 0.22 and the protein stability index under setting [2] worked out at 2.32 ± 0.32.

For WSIVGMAVVKGIQSSGKVMYFSSL [SLC6A17], the protein stability index by setting is: under setting [1], 2.94 ± 0.68; under setting [2], 2.6 ± 0.78.

YAPPPTPAPATQMPSTPGFVGYNP [SMARCE1]: the protein stability index reads like this: under setting [1], 3.01 ± 0.36; under setting [2], 3.72 ± 0.32.

Take YEAIAKHNQVEAAWLEGRIRQEFD [TRIM35]: the protein stability index by setting is: under setting [1], 3.9 ± 0.25; under setting [2], 3.85 ± 0.18.

As to YEKKQTLGQNDTGFSCDGTANTFR [BTBD1], the protein stability index is, setting by setting: under setting [1], 4.23 ± 0.3; under setting [2], 4.15 ± 0.14.

For the sequence YFHINQTLREAHFHSLQHRGRPLT [FAM104A], the protein stability index reads like this: under setting [1], 2.96 ± 0.15; under setting [2], 3.21 ± 0.31.

For the sequence YFRDLPEPLMTNKLSETFLQIYQY [DLC1], the protein stability index is 2.37 ± 0.32 under setting [1] and 2.26 ± 0.24 under setting [2].

With YFYLGGARGAGPPEPLRICPLHIS [TRIM35], the protein stability index is 2.44 ± 0.28 under setting [1] and 2.04 ± 0.32 under setting [2].

In the case of YGAVELSGAGRRKNATRETTSTLK [IRX6], the protein stability index under setting [1] was found to be 4.56 ± 0.38 and the protein stability index under setting [2] worked out at 4.52 ± 0.29.

Consider YGPRWQEVIPYTPAMQRYVKRLHE [HMOX1], for which the protein stability index runs as follows: under setting [1], 3.09 ± 0.4; under setting [2], 3.4 ± 0.24.

Consider YGSDQQHHLGSGSGAGGTGGPAGQ [MYOZ1], for which the protein stability index reads like this: under setting [1], 4.93 ± 0.23; under setting [2], 4.77 ± 0.28.

As for YKKIYFCHSCQLYLPSTEFSVSST [IQUB], the protein stability index runs as follows: under setting [1], 2.39 ± 0.23; under setting [2], 2.08 ± 0.22.

Take YKSFSKEQQTMDNLEKQLICPICL [TRIM55]: the protein stability index runs as follows: under setting [1], 2.72 ± 0.38; under setting [2], 2.77 ± 0.8.

As for YKVNTPMLQSFINYCLLFLIYTVM [SLC35F2], the protein stability index by setting is: under setting [1], 2.35 ± 0.8; under setting [2], 2.44 ± 0.38.

In the case of YLIRVDGKGSIKELFPTGKQLEPL [VPS39], the protein stability index is, setting by setting: under setting [1], 2.49 ± 0.23; under setting [2], 2.21 ± 0.23.

For YLLHGLECVVAMHQAQLISKIPHI [EIF5], the protein stability index reads like this: under setting [1], 3.37 ± 0.11; under setting [2], 3 ± 0.25.

For YLPTRGGTTMASGGRFRCPSCRHE [TRIM55], the protein stability index by setting is: under setting [1], 2.69 ± 0.57; under setting [2], 3.42 ± 0.43.

As for YMVQDQHECILPFVQVKGNFARLQ [M1AP], the protein stability index was 2.56 ± 0.37 under setting [1] and 2.55 ± 0.42 under setting [2].

Regarding YPSLYYPEMYILKGGYKEFFPQHP [CDC25B], the protein stability index amounted to 1.78 ± 0.2 under setting [1] and 2.12 ± 0.43 under setting [2].

With YQCPDQMARNPAAIDMFIIGATFT [FBXO3], the protein stability index is 3.02 ± 0.48 under setting [1] and 2.51 ± 0.77 under setting [2].

For the sequence YRLTEHERAHKGEKPYGCSECGKA [ZNF649], the protein stability index was 4.55 ± 0.38 under setting [1] and 4.85 ± 0.36 under setting [2].

For YSDNPCSCSQSHCCSRYLCMGAMS [SPRY1], the protein stability index came out at 2.62 ± 0.22 under setting [1] and 2.71 ± 0.35 under setting [2].

In the case of YVALQTKGALQKKPLYVAFSFMYI [KCNK9], the protein stability index reads like this: under setting [1], 3.44 ± 0.89; under setting [2], 2.85 ± 0.8.

Turning to YVHWPYCEKRCSYCNFNKYIPRRL [RSAD1], the protein stability index reads like this: under setting [1], 2.62 ± 0.51; under setting [2], 2.45 ± 0.34.

Take YYYMGFYIHSCPKMKYKGQYRPSD [ATE1]: the protein stability index is, setting by setting: under setting [1], 2.25 ± 0.82; under setting [2], 2.45 ± 0.2.
